Experimental findings from US20050100554A1 (published 2005) are described below.

To fix the notation:
T1: Human Papillomavirus 1a L2 (Human Papillomavirus 1a, UniProt P03105 1-507)
T1 construct: also called HPV 1a L2; cbe_252041
T1 sequence: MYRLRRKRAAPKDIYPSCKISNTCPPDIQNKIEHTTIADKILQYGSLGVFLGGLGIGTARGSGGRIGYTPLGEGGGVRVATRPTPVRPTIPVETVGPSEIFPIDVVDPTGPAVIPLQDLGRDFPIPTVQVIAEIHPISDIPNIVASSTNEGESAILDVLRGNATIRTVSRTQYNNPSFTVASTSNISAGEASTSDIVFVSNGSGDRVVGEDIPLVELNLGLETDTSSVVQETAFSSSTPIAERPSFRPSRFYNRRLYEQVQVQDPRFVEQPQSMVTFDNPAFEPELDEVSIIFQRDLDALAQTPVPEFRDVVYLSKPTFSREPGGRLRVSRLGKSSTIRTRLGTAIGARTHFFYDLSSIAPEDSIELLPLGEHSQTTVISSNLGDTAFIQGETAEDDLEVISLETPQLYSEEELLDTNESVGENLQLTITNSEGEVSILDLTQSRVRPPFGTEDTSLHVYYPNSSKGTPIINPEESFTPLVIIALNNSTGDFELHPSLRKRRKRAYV

T2: EFEMP1 (human, UniProt Q12805 18-493)
T2 construct: also called cbe_2321057
T2 sequence: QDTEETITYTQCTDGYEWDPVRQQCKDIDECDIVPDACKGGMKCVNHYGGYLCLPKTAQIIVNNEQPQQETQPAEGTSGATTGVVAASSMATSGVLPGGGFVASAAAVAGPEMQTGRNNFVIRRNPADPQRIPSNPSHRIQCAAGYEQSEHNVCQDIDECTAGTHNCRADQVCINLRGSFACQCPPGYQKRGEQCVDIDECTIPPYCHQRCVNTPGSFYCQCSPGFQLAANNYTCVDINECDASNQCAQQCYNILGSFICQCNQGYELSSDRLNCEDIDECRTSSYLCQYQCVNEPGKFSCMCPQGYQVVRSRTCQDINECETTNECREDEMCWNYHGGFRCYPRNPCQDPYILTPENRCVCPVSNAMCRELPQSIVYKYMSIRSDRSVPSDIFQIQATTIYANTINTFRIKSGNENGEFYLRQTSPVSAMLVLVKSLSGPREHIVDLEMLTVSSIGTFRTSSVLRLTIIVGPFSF

T3: STX4A (human, UniProt Q12846 1-297)
T3 construct: also called syntaxin 4; cbe_4270186
T3 sequence: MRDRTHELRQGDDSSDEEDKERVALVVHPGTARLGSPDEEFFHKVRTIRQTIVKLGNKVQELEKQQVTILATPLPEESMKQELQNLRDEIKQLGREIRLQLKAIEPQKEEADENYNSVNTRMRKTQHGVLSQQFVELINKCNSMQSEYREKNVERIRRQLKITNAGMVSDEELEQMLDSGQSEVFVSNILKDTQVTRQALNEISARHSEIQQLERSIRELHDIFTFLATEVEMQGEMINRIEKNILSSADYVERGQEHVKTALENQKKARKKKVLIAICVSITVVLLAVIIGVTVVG

T4: PTPN21 (human, UniProt Q16825 1-1174)
T4 construct: also called cbe_4260642
T4 sequence: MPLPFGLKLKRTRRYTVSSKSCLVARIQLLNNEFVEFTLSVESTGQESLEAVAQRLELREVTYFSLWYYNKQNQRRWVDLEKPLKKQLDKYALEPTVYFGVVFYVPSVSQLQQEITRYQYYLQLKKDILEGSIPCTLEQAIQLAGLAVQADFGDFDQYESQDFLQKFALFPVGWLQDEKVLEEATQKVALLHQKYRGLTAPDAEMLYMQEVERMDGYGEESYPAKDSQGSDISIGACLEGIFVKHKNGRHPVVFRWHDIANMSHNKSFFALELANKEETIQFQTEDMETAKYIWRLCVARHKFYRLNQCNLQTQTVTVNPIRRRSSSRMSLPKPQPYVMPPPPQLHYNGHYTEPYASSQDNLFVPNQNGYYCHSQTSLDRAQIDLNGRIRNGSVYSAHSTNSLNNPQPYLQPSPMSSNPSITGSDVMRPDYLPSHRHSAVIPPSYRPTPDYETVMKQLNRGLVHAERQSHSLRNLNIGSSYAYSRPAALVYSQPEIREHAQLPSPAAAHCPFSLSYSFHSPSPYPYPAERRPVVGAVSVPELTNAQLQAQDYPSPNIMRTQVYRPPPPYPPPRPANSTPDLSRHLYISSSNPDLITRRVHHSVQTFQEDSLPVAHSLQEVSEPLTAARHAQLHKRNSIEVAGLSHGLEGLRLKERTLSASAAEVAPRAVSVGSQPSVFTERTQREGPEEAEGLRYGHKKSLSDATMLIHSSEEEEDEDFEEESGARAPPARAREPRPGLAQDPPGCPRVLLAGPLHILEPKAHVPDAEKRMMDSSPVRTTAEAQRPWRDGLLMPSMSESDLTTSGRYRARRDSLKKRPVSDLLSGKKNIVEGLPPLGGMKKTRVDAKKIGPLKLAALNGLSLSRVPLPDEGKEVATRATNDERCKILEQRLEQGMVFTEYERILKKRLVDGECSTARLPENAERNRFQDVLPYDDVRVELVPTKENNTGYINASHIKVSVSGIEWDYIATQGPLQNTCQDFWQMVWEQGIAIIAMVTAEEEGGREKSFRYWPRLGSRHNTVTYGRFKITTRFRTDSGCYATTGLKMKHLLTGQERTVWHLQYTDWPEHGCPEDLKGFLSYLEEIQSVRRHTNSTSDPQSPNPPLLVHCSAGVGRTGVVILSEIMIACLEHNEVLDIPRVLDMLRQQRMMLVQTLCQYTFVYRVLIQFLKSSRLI

T5: MPP3 (human, UniProt Q13368 1-585)
T5 construct: also called cbe_3921620
T5 sequence: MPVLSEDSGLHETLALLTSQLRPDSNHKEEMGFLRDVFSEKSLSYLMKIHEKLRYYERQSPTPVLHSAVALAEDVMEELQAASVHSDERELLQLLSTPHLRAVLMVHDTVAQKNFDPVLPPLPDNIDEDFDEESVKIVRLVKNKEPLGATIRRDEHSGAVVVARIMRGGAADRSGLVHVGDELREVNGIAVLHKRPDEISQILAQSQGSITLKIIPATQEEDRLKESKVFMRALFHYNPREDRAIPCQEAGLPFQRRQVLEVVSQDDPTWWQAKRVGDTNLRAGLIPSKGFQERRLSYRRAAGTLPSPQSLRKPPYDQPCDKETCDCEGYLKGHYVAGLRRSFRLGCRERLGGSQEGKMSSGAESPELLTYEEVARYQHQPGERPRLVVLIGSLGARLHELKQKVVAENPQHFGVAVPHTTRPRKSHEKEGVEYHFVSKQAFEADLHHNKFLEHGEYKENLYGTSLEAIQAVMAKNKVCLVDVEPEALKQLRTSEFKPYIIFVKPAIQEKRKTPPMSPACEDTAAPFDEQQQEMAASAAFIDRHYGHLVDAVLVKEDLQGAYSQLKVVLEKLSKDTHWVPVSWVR

T6: tissue factor pathway inhibitor (lipoprotein-associated coagulation inhibitor) (human, UniProt P10646 29-304)
T6 construct: also called TFPI; cbe_3834015
T6 sequence: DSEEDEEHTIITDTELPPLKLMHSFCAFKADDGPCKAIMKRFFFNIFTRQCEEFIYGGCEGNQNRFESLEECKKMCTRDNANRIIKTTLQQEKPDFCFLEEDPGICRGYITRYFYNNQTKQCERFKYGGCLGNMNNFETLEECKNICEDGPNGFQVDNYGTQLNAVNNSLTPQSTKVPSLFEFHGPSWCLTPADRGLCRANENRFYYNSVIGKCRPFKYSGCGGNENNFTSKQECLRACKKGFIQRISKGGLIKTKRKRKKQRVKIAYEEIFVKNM

B1: Human papillomavirus 16 E2 (other)
chain: METLCQRLNVCQDKILTHYENDSTDLRDHIDYWKHMRLECAIYYKAREMGFKHINHQVVPTLAVSKNKALQAIELQLTLETIYNSQYSNEKWTLQDVSLEVYLTAPTGCIKKHGYTVEVQFDGDICNTMHYTNWTHIYICEEASVTVVEGQVDYYGLYYVHEGIRTYFVQFKDDAEKYSKNKVWEVHAGGQVILCPTSVFSSNEVSSPEIIRQHLANHPAATHTKAVALGTEETQTTIQRPRSEPDTGNPCHTTKLLHRDSVDSAPILTAFNSSHKGRINCNSNTTPIVHLKGDANTLKCLRYRFKKHCTLYTAVSSTWHWTGHNVKHKSAIVTLTYDSEWQRDQFLSQVKIPKTITVSTGFMSI
notes: also called HPV 16 E2; cbe_251088
B2: Human papillomavirus 16 E7 (other)
chain: MHGDTPTLHEYMLDLQPETTDLYCYEQLNDSSEEEDEIDGPAGQAEPDRAHYNIVTFCCKCDSTLRLCVQSTHVDIRTLEDLLMGTLGIVCPICSQKP
notes: also called HPV 16 E7; HPV16 E7
B3: soggy-1 gene (other)
chain: APIHDADAQESSLGLTGLQSLLQGFSRLFLKGNLLRGIDSLFSAPMDFRGLPGNYHKEENQEHQLGNNTLSSHLQIDKMTDNKTGEVLISENVVASIQPAEGSFEGDLKVPRMEEKEALVPIQKATDSFHTELHPRVAFWIIKLPRRRSHQDALEGGHWLSEKRHRLQAIRDGLRKGTHKDVLEEGTESSSHSRLSPRKTHLLYILRPSRQL
notes: also called DKKL1-pending; cbe_4279962
B4: DAD1 (other)
chain: SASVVSVISRFLEEYLSSTPQRLKLLDAYLLYILLTGALQFGYCLLVGTFPFNSFLSGFISCVGSFILAVCLRIQINPQNKADFQGISPERAFADFLFASTILHLVVMNFVG
notes: also called cbe_4268208
B5: eukaryotic translation elongation factor 1 alpha 1-like 14 (other)
chain: MQSERGITIDISLWKFETSKYYVTIIDAPGHRDFIQNMITGTSQADCAVLIVAAGVGEFEAGISKNGQTREHALLAYTLGVKQLIVGVNKMDSTEPPYSQKRYEEIVKEVSTYIKKIGYNPDTVAFVPISGWNGDNMLEPSANMPWFKGWKVTRKDGNASGTTLLEALDCILPPTRPTDKPLGLPLQDVYKIGGIGTVPVGRVETGVLKPGMVVTFGPVNVTTEVKSVEMHHEALGEALPGDNVGFNVKNVSVKDVRRGNVAGDSKNDPPMEAAGFPAQVIILNHPGQISAGYAPVLDCHTAHIACKFAELKEKIDRRSGKKLEDGPKFLKSGDAAIVDMVPGKPMCVESFSDYPPLGCFAVRDMRQTVAVGVIKAVDKKAAGAGKVTKSAQKAQKAK
notes: also called EEF1A1L14; cbe_3773649

Test [1] concerns the target T1, Human Papillomavirus 1a L2. Nature of the test: Y2H; INT ID 146.
Another test concerns the target T2, EFEMP1. Kind of test: Y2H; INT ID 147.
The next test concerns the target T3, STX4A. Nature of the test: Y2H; INT ID 181.
The target of the next test is T7, PSMC1 (human, UniProt P62191 2-440).
T7 construct: also called proteosome 26S subunit; proteosome subunit PMSC1
Nature of the test: Y2H; INT ID 179.

Test [2] addresses T8, zinc finger protein ZNF140-like protein (human, UniProt Q9NR11 1-478).
T8 construct: also called LOC55828; cbe_3787129
Nature of the test: Y2H; INT ID 170.

The next test deals with T4, PTPN21. Kind of test: Y2H; INT ID 174.
The target in the next test is T9, NDUFS3 (human, UniProt O75489 37-264).
T9 construct: also called cbe_4268611
Nature of the test: Y2H; INT ID 176.

In another test the target is T5, MPP3. Nature of the test: Y2H; INT ID 173.
The target in test [3] is T6, tissue factor pathway inhibitor …. Kind of test: Y2H; INT ID 172.
A further test concerns the target T10, keratin 4 (human, UniProt P19013 1-520).
T10 construct: also called KRT4; cbe_3474077
Kind of test: Y2H; INT ID 168.

For test [4], the target named is B1. Nature of the test: Y2H; INT ID 151.
In test [5] the target is B1. Kind of test: Y2H; INT ID 150.
For test [6], the target named is B2. Nature of the test: Y2H; INT ID 169.

T7 sequence (P62191 2-440 limits assumed): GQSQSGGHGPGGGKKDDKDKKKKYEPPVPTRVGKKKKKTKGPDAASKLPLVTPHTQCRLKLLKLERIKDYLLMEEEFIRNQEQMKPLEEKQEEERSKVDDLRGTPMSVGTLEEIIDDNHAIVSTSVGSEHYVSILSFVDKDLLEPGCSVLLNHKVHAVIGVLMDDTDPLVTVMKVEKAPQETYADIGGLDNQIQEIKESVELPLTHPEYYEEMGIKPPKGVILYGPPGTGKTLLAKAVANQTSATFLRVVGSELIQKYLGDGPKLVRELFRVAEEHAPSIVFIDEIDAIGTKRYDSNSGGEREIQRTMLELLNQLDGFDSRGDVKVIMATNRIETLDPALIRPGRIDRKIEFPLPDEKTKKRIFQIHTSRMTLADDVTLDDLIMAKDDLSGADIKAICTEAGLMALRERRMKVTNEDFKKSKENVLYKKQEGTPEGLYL
T10 sequence (P19013 other isoform, or with tags, fused parts or gaps limits assumed): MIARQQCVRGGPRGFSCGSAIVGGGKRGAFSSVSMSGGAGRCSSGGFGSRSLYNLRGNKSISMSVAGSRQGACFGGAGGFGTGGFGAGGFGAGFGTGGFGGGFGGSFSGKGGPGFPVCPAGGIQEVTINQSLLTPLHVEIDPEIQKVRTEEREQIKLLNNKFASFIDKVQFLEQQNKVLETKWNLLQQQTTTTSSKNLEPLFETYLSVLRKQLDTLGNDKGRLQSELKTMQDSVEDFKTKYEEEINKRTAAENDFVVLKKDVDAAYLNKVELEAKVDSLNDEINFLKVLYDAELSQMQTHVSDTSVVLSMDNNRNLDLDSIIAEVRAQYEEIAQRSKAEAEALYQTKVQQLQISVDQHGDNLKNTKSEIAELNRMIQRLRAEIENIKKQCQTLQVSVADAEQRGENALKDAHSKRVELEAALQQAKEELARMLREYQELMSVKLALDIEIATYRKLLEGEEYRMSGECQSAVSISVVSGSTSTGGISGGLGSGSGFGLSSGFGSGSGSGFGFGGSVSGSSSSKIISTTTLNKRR
T8 sequence (Q9NR11 whole entry): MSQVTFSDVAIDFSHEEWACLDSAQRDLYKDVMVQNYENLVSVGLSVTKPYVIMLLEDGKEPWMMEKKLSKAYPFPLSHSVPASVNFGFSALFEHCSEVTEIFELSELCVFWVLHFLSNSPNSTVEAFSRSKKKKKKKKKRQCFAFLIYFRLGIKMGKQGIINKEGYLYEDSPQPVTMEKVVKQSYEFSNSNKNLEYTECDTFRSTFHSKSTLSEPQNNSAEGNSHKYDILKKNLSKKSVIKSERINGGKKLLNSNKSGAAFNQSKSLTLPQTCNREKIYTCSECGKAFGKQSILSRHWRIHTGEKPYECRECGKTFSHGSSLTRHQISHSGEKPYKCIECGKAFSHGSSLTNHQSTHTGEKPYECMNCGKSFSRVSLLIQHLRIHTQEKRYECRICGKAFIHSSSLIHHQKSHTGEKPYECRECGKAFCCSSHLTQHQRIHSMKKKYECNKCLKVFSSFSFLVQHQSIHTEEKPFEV
T9 sequence (O75489 37-264 limits assumed): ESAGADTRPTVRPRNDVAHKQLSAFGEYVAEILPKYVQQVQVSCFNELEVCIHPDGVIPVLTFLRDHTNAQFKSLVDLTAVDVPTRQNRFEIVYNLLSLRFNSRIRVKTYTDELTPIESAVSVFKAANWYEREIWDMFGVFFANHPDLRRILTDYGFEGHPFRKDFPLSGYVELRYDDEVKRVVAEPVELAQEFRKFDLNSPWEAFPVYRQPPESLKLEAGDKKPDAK

As for B1, the binding result (in test [1]; in the test with EFEMP1) was “binds” in each case.
Consider B2, for which the binding result (with STX4A; with PSMC1; in test [2]; in the test with PTPN21; in the test with NDUFS3; with MPP3) was “binds” in each case. In addition, the binding result (in test [3]; with keratin 4) was “binds” in each case.
As for B3, the binding result in [4] was “binds”.
Regarding B4, in test [5], the binding result is on record as “binds”.
B5: in [6], the binding result is “binds”.
